# Experimental data as given in publication PMC10382582 (Cell Discovery, 2023).
# Biological target: biotinylated SARS-CoV-2 prototype RBD (SARS-CoV-2 (prototype), UniProt P0DTC2, biotin (biotinylated; site not stated))
# Assay: BLI
# Settings: both partners purified
binder,measurement,value
"pan-sarbecovirus mAb S2H97 (antibody, V domains shown) VH: QVRLVQSGAEVKKSGESLKISCKGSGYSFTSYWIGWVRQMPGKGLEWMGIIYPGDSDTRYSPSFQGQVTISADKSISTVYLQWSSLKASDTAMYYCARQWSHYTYDYYYWGQGTLVTISS VL: QSVLTQPASVSGSPGQSITISCTGISSDVGGYNSVSWYQQHPGKAPKLMIYDVTNRPSGVSNRFSGSKSGNTASLTISGLQAEDEADYYCSSYTSSSTPPYVFGTGTKVSVL",binding result,binds
